According to patent US20170065713A1:

Molecular target: soluble HLA-A*02:01 molecules (purified MHC with human β2-microglobulin) (human)
Test: competition with radiolabeled standard peptide for soluble HLA-A*02:01

Binder | Kd [nM]
NLLTTPKFT (modifications not checked) [gB342-350 peptide (HSV-1 glycoprotein B residues 342-350, …)] | > 500
GIFEDRAPV (modifications not checked) [gB183-191 peptide (HSV-1 glycoprotein B residues 183-191, …)] | > 500
